In the DeepSol protein solubility set:

assay: soluble on expression in E. coli; label from the status in PepcDB or PDB records

Sequence | soluble on expression in E. coli
MRTAEFWIGRLGLERHPEGGWYRETYRSEGSYGFNGNSPFGSPRSYATSIFYLLEHGDRSRLHRIRSDEQWYFHAGSPLDVHCFPETGDPSLFTLGDDPNAGQVLHSWVSAGHWFGASLSEQADAPGTYALVSCVVAPGFDFRDLTFADPAALTAQFPAHAQIIEKLSLEHHHHHH | soluble
MRTITFNELRKIKDSLPSGSMHRIADELGLHVDTVRNFFGGHNFKEGKSVGIHLEPGPDGGLVMLDDTTVLDRALKILDEINMSMQKEQATEPMQI | not soluble
MRTRLLAILLAVWPAACATAEPACRDLTFEDTRYSLCEAQAGDDIRIFQTAPDGRPYGSFERINSALEGEGRQLAFAMNAGMYHADRRPVGLLIEEEVERAPLVTSAGPGNFGLLPNGVFCVGDGFRVIESRAFAAERPTCRHASQSGPMLVIGGELHPRFLVDSDSRYIRNGVGVSADGRRAVFAISNRPVTFHEFGRLFRDELGLPEALYFDGSISRLYDRGARRSDWGTPMGPIVGLVVPKPLEHHHHHH | not soluble
MRTRSGSAEFSGPLRSVAILAQEKLGDCVLLTPLVRNLRQAFPDLEIHLITFSRASANFFMNDPQVTAVHLVKKQPRRYFREVLSRKFDLLFNTKDHPSTWFLLQSALIRARFKVGHNNPFHEGLYDRLLDTEFHAHMAVKNCALLPLLGVTADTEACRPSLEHHHHHH | soluble
MRVAVDAMGGDNAPAVEVEGAVVAAREFGIPITLVGDTEKLRLELAKHNVQGLDIAIHHASEVVGMHDAASDAVRRKKDSSIRVAFDLVKSGEAEAVVSAGNSGATMAAGMFVLKRLKGIDRPAIAQIFPTLRGKTLVLDVGGNVDCKPIHLVQFAIMGEVYARHVIGVEQPRIGLLSNGEEDSKGNELTRETNAILKNISFDYEGYVEGRDIFNGMVDVVVCDGFVGNVVLKLSEGLAETVGKMLREEIASSLLSKLGYLFVRKAFKNFKKKVDYAEYGGAPLIGINGVAMICHGGSNVKAIKNAIHFAHEYVRKGVNQRLAEKMETEFTAYMQQFDAVKEAVAG | not soluble
MRVDAIAKVTGRARYTDDYVMAGMCYAKYVRSPIAHGYAVSINDEQARSLPGVLAIFTWEDVPDIPFATAGHAWTLDENKRDTADRALLTRHVRHHGDAVAIVVARDELTAEKAAQLVSIEWQELPVITTPEAALAEDAAPIHNGGNLLKQSTMSTGNVQQTIDAADYQVQGHYQTPVIQHCHMESVTSLAWMEDDSRITIVSSTQIPHIVRRVVGQALDIPWSCVRVIKPFVGGGFGNKQDVLEEPMAAFLTSKLGGIPVKVSLSREECFLATRTRHAFTIDGQMGVNRDGTLKGYSLDVLSNTGAYASHGHSIASAGGNKVAYLYPRCAYAYSSKTCYTNLPSAGAMRGYGAPQVVFAVESMLDDAATALGIDPVEIRLRNAAREGDANPLTGKRIYSAGLPECLEKGRKIFEWEKRRAECQNQQGNLRRGVGVACFSYTSNTWPVGVEIAGARLLMNQDGTINVQSGATEIGQGADTVFSQMVAETVGVPVSDVRVISTQDTDVTPFDPGAFASRQSYVAAPALRSAALLLKEKIIAHAAVMLHQSAMNLTLIKGHIVLVERPEEPLMSLKDLAMDAFYHPERGGQLSAESSIKTTTNPPAFGCTFVDLTVDIALCKVTINRILNVHDSGHILNPLLAEGQVHGGMGMGIGWALFEEMIIDAKSGVVRNPNLLDYKMPTMPDLPQLESAFVEINEPQSAYGHKSLGEPPIIPVAAAIRNAVKMATGVAINTLPLTPKRLYEEFHLAGLI | soluble
MRVDVVSRDIIKPSSPTPNHLKKFKLSLLEQLGPTIFGPMVFFYSANNSIKPTEQLQMLKKSLSETLTHFYPLAGRLKGNISIDCNDSGADFLEARVNSPLSNLLLEPSSDSLQQLIPTSVDSIETRTRLLLAQASFFECGSMSIGVCISHKLADATSIGLFMKSWAAISSRGSIKTIGAPVFDTVKIFPPGNFSETSPAPVVEPEIMMNQTLSKRFIFDSSSIQALQAKASSFEVNQPTRVEAVSALIWKSAMKATRTVSGTSKPSILANSVSLRSRVSPPFTKNSIGNLVSYFAAKAEEGINQTKLQTLVSKIRKAKQRFRDIHIPKLVGNPNATEIICSYQKEAGDMIASGDFDFYIFSSACRFGLYETDFGWGKPVWVGFPSVRQKNIVTLLDTKEAGGIEAWVNLNEQEMNLFEQDRELLQFASLNPSVIQPFLHVL | soluble
MRVGLVHGFLSRRYLDFWRAYLEALGVEVVEAAPPPSDLPFCLPVQRLLAQVEALKEAGVDYLLLPDLQGGVESERGGGQCPWLLDLEAALLRYFPGLPPVLKVPAELSERVLGRAGEVGQLLVRNPMLVGRALDRTRRLLKPPPPLPTPQGSVGVVAQPYLLEEPAFRREVEAALRAHGLEAYFPDLPPERLREEADRLLPVDLPTDRELVGAIHYLGRLGRVKGLALVVSYACPPIPGLMRKAARRLGKPYRLLTLGEDWQEPLAALKAEMEKGNRGG | soluble
MRVLILGGTGNAAELAARVATIQGVDAITSLAGRTREPSVPLGDLRVGGFGGVAGLASYLQAMQIDLLIDATHPFASQISFNAADAAKEVGVPRLMLIRPPWEKGSGDRWMEVDNVEAAAASLQNQAHRVFLTVGRQELAAFAHLEEIWFLMRMIDPPVDDALVPPGMVLCDRGPFNLNNERQILIDRKIDTIVSKNSGGDATKPKIIAARELGVKVVMVNRPAIPPGEQVSDVEGALVWLLEKLHN | not soluble
MRVVRPEFRPAPGLDTDAMASRQRDIAAVADFADDHGLTPERIGLDEPPGEQAALGGATTSGEAAPVVVGVDQAFRDDEVSVSAAVAIRDGAVIERAAGNAPLDVPYVPGLLAFREGSAVIDALSSLSVEPDLLVVDGSGRIHYRQAGLATHVGVLFDVPAVGVAKSLLCGTPAAALADPLPAGTRVAIEADDSMDAPDGAVVGYALQSRQYPTPETRHINPLYVSPGHRVSAGTAADLVEATCTQYKLPAPTRLADQYAADLT | not soluble
MRWDIFCHVVDNYGDIGICWRLARQLVTEFDISVRMLVDDLGAMQRICPAIDPRLAVQNIRGVEILHWVEPFADLVPADVVIEAFGCELPPRYIAAMAAASPRFSEPEGKTDRIWINLEYLSAEQWVEGCHGLASPHPSLPLIKYFFFPGFTAATGGLLREAELFTLRDASRTDPAGLWRELGITNPAADEATVSLFCYDSAPISDLLEAWAGSISPVRCLLPEGTASASAASWAGISRLAAGDSIQRGNLTLHVIPFMSQENYDHLLWACDCNFVRGEDSFVRAQWAVRPIVWQIYPQQENVHLIKLEAFLDLYCQELIEPAADAVRAFHRSWNNNEQPDWNCFWKYRDVLQQHAMAWAERLAQIPNLASSLVNFCRNR | not soluble
MRWNLDPTHTSVEFAVRHMMIATVRGTMGLKEGYVETDETGKPIRVEARLDAASIHTGVADRDNHLRSPDFLDVANHPEIVFRSEKITPLGEGRYRVEGEVTIRGVTRPLAFEVETHGPAKDPWGNERIAAHFEGKLNRKDFGLTWNMPLETGGLLVGEEVRFSVDTQAVKAKEAVAQ | soluble
MRYGFMKVAAAVPFVKVADCEYNIERIDRMVHEADAKGVEIMTFPELSITGYSCGDLFFQPFLQERANEALCRLVEQTANTTVMVIVGMPLRVEEKLFNSAVVFQQGKILGAIPKTYLPNYREFQEARWFSPAHTLQYSTISIGQHSVPIGRNLIFKCGTVGVGIEICEDMWTPFTPGTRLCLYGAEVIFNLSSSNENAGKHSYLRSLISGLSSQGICAYVYASSGYGESSTDIVFTGKAFIAEAGEIVEEMERFRYEERMIISDIDVSRIQTERLINSSFKAAVTFHTHDEKFNQLPFKLRSRQESLPMTRRVDRNPFMPEDKDRKERSREMINIQVCGLMQRLLHMGAEHAVIGISGGLDSALALIVCAQAFDRLDLPRKNIIAVTMPGFGTSDRTYRNAFALMEAIGVTIKEIDIKEACLRHFEAIGHNPEVQDTTFENTQARERTQILMNLANIYNAPVIGTGDLSELALGWVTYNGDHMSMYAVNAGIAKTTVQILVDHIAHSGWLDEAASAVLLDIVRTPISPELKPVGQLEHHHHHH | not soluble
MRYLDAEAIENIATGAAFLGTGGGGDPYIGKMMALSAIEENGPVKLVSPEEIAAEDFFLPAAMMGAPSVAIEKFPKGDEFVRVFEKLGKYLDQETIAGTFPMEAGCVNSMIPIVVAAKLGIPLVDCDGMGRAFPELPMVTFHLNGMSATPMAITDEKGNIGIMETIDNTWTERLARVQTVEMGASALVSIYPATGKQLQDYGIHNIVTLSEEIGKVIRGTYADEQEKRQALVEVTDGFELFQGKILDVEREVKGGFNLGRVKLSGLNSDAGSEAVVHFQNENLIAEKDGQVIAMTPDLICMVDLETLTPVTTESLKYGKRVQVMGLKANAAWRTKKGIETVGPRYFGYEMDYQPLENLVAKEDKLEHHHHHH | soluble
MSALAVALARQSESHADCPLFNDPYAQVFIDAALSRGCQLPSDETSERINGIANYASSRTKWFDEYFIAAGAHGLEQMVIVAAGLDARAWRLPWVAGTTLFEIDHPGVLKFKNEALHEHGESPSVSRYVPVPADLSDGWSERLRDAGFDVSEPTAWAVEGLLPYVADGPHLLFDRIHEISPAGSRLAVEAVGTGVADWLSTQGWQVTMIGAQELMTRYGRCGDHSDTDAGMDTVFVNATRTR | soluble
MSANSKDRNQSNQDAKRQQQNFPKKISEGEADLYLDQYNFTTTAAIVSSVDRKIFVLLRDGRMLFGVLRTFDQYANLILQDCVERIYFSEENKYAEEDRGIFMIRGENVVMLGEVDIDKEDQPLEAMERIPFKEAWLTKQKNDEKRFKEETHKGKKMARHGIVYDFHKSDMY | not soluble
MSAPKPFVIGIAGGTASGKTTLAQALARTLGERVALLPMDHYYKDLGHLPLEERLRVNYDHPDAFDLALYLEHAQALLRGLPVEMPVYDFRAYTRSPRRTPVRPAPVVILEGILVLYPKELRDLMDLKVFVDADADERFIRRLKRDVLERGRSLEGVVAQYLEQVKPMHLHFVEPTKRYADVIVPRGGQNPVALEMLAAKALARLARMGAA | soluble
MSAPLYMQIKQFILDKIDSGDWMVGQRIATEIELTEQFGVSRMTVNKAIRDLVNEGKLQRRPRLGTFVCDPSEKSESPLLDIRNIAEEVSDRGRQYSSKVVQQVAIKADDSIAIKLGVMLGTTVFYSEIIHYEDSTPIQLELRWVNSQYAPSYLSQDFTQITPNQYLSNNCPLSAIEHTVEAIVPDNRIKLDLKMQANEPCLLLNRRTWSQDKLVSTALLYHPGNKYKLSSKVLL | not soluble
MSARLDAQIAFLKQADRLKSVERANVLLDLSRPENSAEHSWHLALWALVLSPFAAPDVDVDRAIRMLLLHDLVEIETGDHPIHEVTDWQAVERAERAAARKLFGLLPPDQAADFHTLWTEFDADETADARYAKMLDRCQPMFQVLCADTPRPDHVEVVRENLSSGRAAYLAEAFPEAHAHARALLERHPPVTGGFGDRLEFLAEADRLKTVLRASRLMDDSRFENSAEHSWHIMLYAWVLGEYAAAPVDIDRVLRMLLLHDLVEIDAGDNPIHGNVDHAAQEALEAAAAERLFGLLPPDQGAGLRAIWQEFETAQSADALFGKAVDRVQTPIANLENGGGSWVTYDVSLQQLVARVGTPVSRGAPGLWDWLFPQLSDCFTRLGLRLLEHHHHHH | soluble
